Assay results published in US20070196376A1 (AstraZeneca / MedImmune, published 2007).
Values belong to the binder of their own block, whether it stands above or below them.

How the values were obtained:
[1] = biological target: T1, human insulin-like growth factor-II (IGF-II) (human, UniProt P01344 25-91); test: cell-based or functional assay
[2] = biological target: T1, human insulin-like growth factor-II …; test: Biacore low-resolution analysis, IGF-II
Experimental: (§1) The label-free surface plasmon resonance (SPR), or Biacore, was utilized to measure the antibody affinity to the antigen. For this purpose, a high-density goat anti-human antibody surface over a CM5 Biacore chip was prepared using routine amine coupling. All the mAbs were diluted to approximately 20 μg/ml in HBS-P running buffer containing 100 gg/ml BSA. Each mAb was captured on a separate surface using a 30-second contact time at 10 μL/min., and a 5-minute wash for stabilization of the mAb baseline.
(§2) The samples were prepared in the HBS-P running buffer described above. […] Drift-corrected binding data for the 34 mAbs was prepared by subtracting the signal from a control flow cell and subtracting the baseline drift of a buffer injected just prior to each antigen injection. […] A mass transport coefficient was used in fitting the data.

[3] = biological target: T1, human insulin-like growth factor-II …; test: cell-based or functional assay; remark: listed apart in the source
[4] = biological target: T2, human insulin-like growth factor-I (IGF-I) (human, UniProt P05019 49-118); test: cell-based or functional assay
[5] = biological target: T2, human insulin-like growth factor-I …; test: Biacore low-resolution screen, mAb captured, IGF-I injected
Experimental: as §1, §2

[6] = biological target: T2, human insulin-like growth factor-I …; test: Biacore low-resolution analysis, IGF-I
Experimental: as §1, §2

[7] = biological target: T1, human insulin-like growth factor-II …; test: cell-based or functional assay; remark: listed apart in the source
[8] = biological target: T2, human insulin-like growth factor-I …; test: cell-based or functional assay; remark: listed apart in the source
[9] = biological target: T1, human insulin-like growth factor-II …; test: cell-based or functional assay; remark: listed apart in the source
[10] = biological target: T2, human insulin-like growth factor-I …; test: cell-based or functional assay; remark: listed apart in the source
[11] = biological target: T1, human insulin-like growth factor-II …; test: Biacore high-resolution, mAb captured, IGF-II injected over a range of concentrations; second value, row without label
[12] = biological target: T2, human insulin-like growth factor-I …; test: Biacore high-resolution, mAb captured, IGF-I injected over a range of concentrations; second value, row without label
[13] = biological target: T1, human insulin-like growth factor-II …; test: Biacore high-resolution, mAb captured, IGF-II injected over a range of concentrations
[14] = biological target: T1, human insulin-like growth factor-II …; test: Biacore low-resolution screen, mAb captured, IGF-II injected
Experimental: as §1, §2

[15] = biological target: T2, human insulin-like growth factor-I …; test: Biacore high-resolution, mAb captured, IGF-I injected over a range of concentrations
[16] = biological target: mouse IGF-I (mouse, UniProt P05017 49-118); test: cell-based or functional assay
[17] = biological target: mouse IGF-II (mouse, UniProt P09535 25-91); test: cell-based or functional assay
[18] = biological target: T1, human insulin-like growth factor-II …; test: Biacore low-resolution screen, mAb captured, IGF-II injected; off-rate held constant in the fit; off-rate marked with asterisk; low-resolution screen, 5-minute dissociation
Experimental: as §1, §2

[19] = biological target: T2, human insulin-like growth factor-I …; test: Biacore low-resolution analysis, IGF-I; low-resolution screen, not high-resolution (294.0 pM)
Experimental: as §1, §2

EC50 (nM), n = 1, IGF-II Proliferation, BxPC3 cells [1]: 0.5 nM
EC50 (nM), n = 2, IGF-II Proliferation, BxPC3 cells [1]: 6.7 nM
Max % Inhibition (133.3 nM), n = 2, IGF-II Proliferation, BxPC3 cells [1]: 109%
Max % Inhibition (333.3 nM), n = 1, IGF-II Proliferation, BxPC3 cells [1]: 117%
Kd [2]: 60 pM
EC50 (nM), n = 1, IGF-II pTYR, BxPC3 cells [3]: 2 nM
EC50 (nM), n = 2, IGF-II pTYR, BxPC3 cells [3]: 1.9 nM
Max % Inhibition (133.3 nM), n = 2, IGF-II pTYR, BxPC3 cells [3]: 89.7%
Max % Inhibition (333.3 nM), n = 1, IGF-II pTYR, BxPC3 cells [3]: 100%
EC50 (nM), n = 1, IGF-I pTYR, BxPC3 cells [4]: 5.9 nM
EC50 (nM), n = 2, IGF-I pTYR, BxPC3 cells [4]: 3.8 nM
Max % Inhibition (333.3 nM), n = 1, IGF-I pTYR, BxPC3 cells [4]: 100%
Max % Inhibition (333.3 nM), n = 2, IGF-I pTYR, BxPC3 cells [4]: 98.5%
Kd [5]: 615 pM
koff [5]: 0.0032 s⁻¹
kon [5]: 5.2e+06 M⁻¹ s⁻¹
Kd [6]: 615 pM
% MAX Activation, mean (n = 2), IGF-II pTYR of hIGF-IR in NIH3T3 cells [7]: 21.5%
EC50 (nM), mean (n = 2), IGF-II pTYR of hIGF-IR in NIH3T3 cells [7]: 2.5 nM
% MAX Activation, mean (n = 2), IGF-I pTYR of hIGF-IR in NIH3T3 cells [8]: 14.2%
EC50 (nM), mean (n = 2), IGF-I pTYR of hIGF-IR in NIH3T3 cells [8]: 9.4 nM
% Inhibition, mean (n = 2), IGF-II Proliferation Assay, NIH3T3/hIGF-IR cells [9]: 73.6%
EC50 (nM), mean (n = 2), IGF-II Proliferation Assay, NIH3T3/hIGF-IR cells [9]: 16.3 nM
% Inhibition, mean (n = 3), IGF-I Proliferation Assay, NIH3T3/hIGF-IR cells [10]: 72.6%
EC50 (nM), mean (n = 3), IGF-I Proliferation Assay, NIH3T3/hIGF-IR cells [10]: 23.4 nM
Kd [11]: 162 pM
Kd [12]: 421 pM
Kd [13]: 164 pM
Kd [14]: 60 pM
koff [14]: 0.00018 s⁻¹
kon [14]: 3e+06 M⁻¹ s⁻¹
Kd [15]: 436 pM
Mouse IGF-I EC50 (nM), n = 1, phosphorylation of hIGF-IR in NIH3T3 cells [16]: 6 nM
Mouse IGF-I EC50 (nM), n = 2, phosphorylation of hIGF-IR in NIH3T3 cells [16]: 10.2 nM
Mouse IGF-II EC50 (nM), n = 1, phosphorylation of hIGF-IR in NIH3T3 cells [17]: 4 nM
Mouse IGF-II EC50 (nM), n = 2, phosphorylation of hIGF-IR in NIH3T3 cells [17]: 9.7 nM
B1: mAb 7.34.1 (antibody, V domains shown)
VH: QVQLQESGPGLVKPSETLSLTCTVSGGSISSYYWSWIRQPPGRGLEWIGYFFYSGYTNYNPSLKSRVTMSVDTSKNQFSLKLSSVTAADTAVYYCACITGTTKGGMDVWGQGATVTVSS
VL: QSVLTQAPSVSGAPGQRVTISCTGRSSNIGAGYDVHWYQQFPGTAPKLLIYGNSNRPSGVPDRFSGSKSGTSASLAITGLQAEDEADYYCQSYDSSLSGSVFGGGTKLTVLG
notes: Fully human XenoMouse hybridoma mAb, lambda light chain (V1-13/JL2); also called ATCC PTA-7423

koff [18]: < 1e-05 s⁻¹
Kd [19]: 216 pM
EC50 (nM), n = 1, IGF-II Proliferation, BxPC3 cells [1]: 0.8 nM
EC50 (nM), n = 2, IGF-II Proliferation, BxPC3 cells [1]: 0.9 nM
Max % Inhibition (133.3 nM), n = 2, IGF-II Proliferation, BxPC3 cells [1]: 118%
Max % Inhibition (333.3 nM), n = 1, IGF-II Proliferation, BxPC3 cells [1]: 120%
Kd [2]: 2.9 pM
EC50 (nM), n = 1, IGF-II pTYR, BxPC3 cells [3]: 1.6 nM
EC50 (nM), n = 2, IGF-II pTYR, BxPC3 cells [3]: 1.7 nM
Max % Inhibition (133.3 nM), n = 2, IGF-II pTYR, BxPC3 cells [3]: 91.2%
Max % Inhibition (333.3 nM), n = 1, IGF-II pTYR, BxPC3 cells [3]: 100%
EC50 (nM), n = 1, IGF-I pTYR, BxPC3 cells [4]: 3.3 nM
EC50 (nM), n = 2, IGF-I pTYR, BxPC3 cells [4]: 1.6 nM
Max % Inhibition (333.3 nM), n = 1, IGF-I pTYR, BxPC3 cells [4]: 100%
Max % Inhibition (333.3 nM), n = 2, IGF-I pTYR, BxPC3 cells [4]: 100%
Kd [5]: 216 pM
koff [5]: 0.00093 s⁻¹
kon [5]: 4.3e+06 M⁻¹ s⁻¹
% MAX Activation, mean (n = 2), IGF-II pTYR of hIGF-IR in NIH3T3 cells [7]: 28.6%
EC50 (nM), mean (n = 2), IGF-II pTYR of hIGF-IR in NIH3T3 cells [7]: 3.1 nM
% MAX Activation, mean (n = 2), IGF-I pTYR of hIGF-IR in NIH3T3 cells [8]: 16.5%
EC50 (nM), mean (n = 2), IGF-I pTYR of hIGF-IR in NIH3T3 cells [8]: 7.4 nM
% Inhibition, mean (n = 2), IGF-II Proliferation Assay, NIH3T3/hIGF-IR cells [9]: 99.3%
EC50 (nM), mean (n = 2), IGF-II Proliferation Assay, NIH3T3/hIGF-IR cells [9]: 7.6 nM
% Inhibition, mean (n = 3), IGF-I Proliferation Assay, NIH3T3/hIGF-IR cells [10]: 77%
EC50 (nM), mean (n = 3), IGF-I Proliferation Assay, NIH3T3/hIGF-IR cells [10]: 24.1 nM
Kd [13]: 1.9 pM
Kd [14]: < 2.86 pM
kon [14]: 3.5e+06 M⁻¹ s⁻¹
Kd [15]: 294 pM
Mouse IGF-I EC50 (nM), n = 1, phosphorylation of hIGF-IR in NIH3T3 cells [16]: 2.8 nM
Mouse IGF-I EC50 (nM), n = 2, phosphorylation of hIGF-IR in NIH3T3 cells [16]: 5.7 nM
Mouse IGF-II EC50 (nM), n = 1, phosphorylation of hIGF-IR in NIH3T3 cells [17]: 3.1 nM
Mouse IGF-II EC50 (nM), n = 2, phosphorylation of hIGF-IR in NIH3T3 cells [17]: 5 nM
B2: mAb 7.159.2 (antibody, V domains shown)
VH: QVQLVQSGAEVKKPGASVKVSCKASGYTFTSYDINWVRQATGQGLEWMGWMNPNSGNTGYAQKFQGRVTMTRNTSISTAYMELSSLRSEDTAVYYCARDPYYYYYGMDVWGQGTTVTVSS
VL: QSVLTQPPSVSAAPGQKVTISCSGSSSNIENNHVSWYQQLPGTAPKLLIYDNNKRPSGIPDRFSGSKSGTSATLGITGLQTGDEADYYCETWDTSLSAGRVFGGGTKLTVLG
notes: Fully human XenoMouse hybridoma mAb, lambda light chain (V1-19/JL2); Sister clones 7.159.1 and 7.159.2 are said to be identical; also called 7.159.1; 7_159_1
